Assay results reported in publication doi:10.1101/2020.10.06.326603 (bioRxiv, 2020).
Like-named read-outs stand apart in the source and are kept apart here.

B4: IscS S10Q, H247P, Q248L variant (enzyme, E. coli)
chain: MKLPIYLDYQATTPVDPRVAEKMMQFMTMDGTFGNPASRSHRFGWQAEEAVDIARNQIADLVGADPREIVFTSGATESDNLAIKGAANFYQKKGKHIITSKTEHKAVLDTCRQLEREGFEVTYLAPQRNGIIDLKELEAAMRDDTILVSIMHVNNEIGVVQDIAAIGEMCRARGIIYHVDATQSVGKLPIDLSQLKVDLMSFSGHKIYGPKGIGALYVRRKPRVRIEAQMHGGGHERGMRSGTLPVPLIVGMGEAYRIAKEEMATEMERLRGLRNRLWNGIKDIEEVYLNGDLEHGAPNILNVSFNYVEGESLIMALKDLAVSSGSACTSASLEPSYVLRALGLNDELAHSSIRFSLGRFTTEEEIDYTIELVRKSIGRLRDLSPLWEMYKQGVDLNSIEWAHH

How the values were obtained:
[1] = biological target: B4; test: native MS
IscS^QPL-IscU complex = IscS^QPL-IscU complex (E. coli, UniProt P0A6B7 1-404; P0ACD4 1-128, S10Q | H247P | Q248L); test: native MS
SEC [2] = biological target: the molecule itself; test: SEC
[3] = biological target: the molecule itself
[4] = biological target: the molecule itself; test: cell-based or functional assay
SEC [5] = biological target: the molecule itself; test: SEC; remark: listed apart in the source

B1: CyaY (E. coli homolog of frataxin) (natural protein, UniProt P27838 1-106, looked up)
chain: MNDSEFHRLADQLWLTIEERLDDWDGDSDIDCEINGGVLTITFENGSKIIINRQEPLHQVWLATKQGGYHFDLKGDEWICDRSGETFWDLLEQAATQQAGETVSFR
B1: binds [1]; binds (IscS^QPL-IscU complex).

B2: IscS S10H, H247P, Q248L variant (enzyme, E. coli)
chain: MKLPIYLDYHATTPVDPRVAEKMMQFMTMDGTFGNPASRSHRFGWQAEEAVDIARNQIADLVGADPREIVFTSGATESDNLAIKGAANFYQKKGKHIITSKTEHKAVLDTCRQLEREGFEVTYLAPQRNGIIDLKELEAAMRDDTILVSIMHVNNEIGVVQDIAAIGEMCRARGIIYHVDATQSVGKLPIDLSQLKVDLMSFSGHKIYGPKGIGALYVRRKPRVRIEAQMHGGGHERGMRSGTLPVPLIVGMGEAYRIAKEEMATEMERLRGLRNRLWNGIKDIEEVYLNGDLEHGAPNILNVSFNYVEGESLIMALKDLAVSSGSACTSASLEPSYVLRALGLNDELAHSSIRFSLGRFTTEEEIDYTIELVRKSIGRLRDLSPLWEMYKQGVDLNSIEWAHH
With B2 the “stoichiometry N” value (SEC [2]) was 2, the Kd [3] was 8 µM and the “cysteine desulfurase activity under standard conditions (kcat)” value (“cysteine desulfurase activity” below) [4] was 0.025 s⁻¹.

B3: IscS S10N, H247P, Q248L variant (enzyme, E. coli)
chain: MKLPIYLDYNATTPVDPRVAEKMMQFMTMDGTFGNPASRSHRFGWQAEEAVDIARNQIADLVGADPREIVFTSGATESDNLAIKGAANFYQKKGKHIITSKTEHKAVLDTCRQLEREGFEVTYLAPQRNGIIDLKELEAAMRDDTILVSIMHVNNEIGVVQDIAAIGEMCRARGIIYHVDATQSVGKLPIDLSQLKVDLMSFSGHKIYGPKGIGALYVRRKPRVRIEAQMHGGGHERGMRSGTLPVPLIVGMGEAYRIAKEEMATEMERLRGLRNRLWNGIKDIEEVYLNGDLEHGAPNILNVSFNYVEGESLIMALKDLAVSSGSACTSASLEPSYVLRALGLNDELAHSSIRFSLGRFTTEEEIDYTIELVRKSIGRLRDLSPLWEMYKQGVDLNSIEWAHH
For B3, the “stoichiometry N” value (SEC [2]) was 2, the Kd [3] was 0.8 µM and the “cysteine desulfurase activity” value [4] was 0.148 s⁻¹.

For B4, the Kd [3] was 32 µM, the “stoichiometry N” value (SEC [5]) was 2 and the “cysteine desulfurase activity” value [4] was 0.00367 s⁻¹.
